Assay results published in the RNAGym collection of RNA variant scans (doi:10.1093/nar/gkz1192).

B1: CPEB3 Ribozyme (parent)
chain: UAACAGGGGGCCACAGCAGAAGCGUUCACGUCGCAGCCCCUGUCAGAUUCUGGUGAAUCUGCGAAUUCUGCUGUAUAUCUC

Variants of: B1
Assay: self-cleavage, relative activity (ratio to wild type); higher = more cleavage; in vitro, sequencing
In short: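 Barcoded CPEB3 ribozyme mutants, produced by rounds of error-prone PCR, self-cleaved while being transcribed with T7 RNA polymerase for 5 hours at 37°C and during a subsequent 15 min DNase I step before EDTA was added. Sequencing of template-switched cDNA on Illumina gave cleaved and total reads, and DNA sequencing assigned barcodes to variants. Each variant's relative activity is its cleaved/total read fraction divided by the unmutated ribozyme's fraction, averaged across three batches. A variant needed a minimum of 5 reads.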

Row | Variant | self-cleavage
1 | U66C U80A | 0.48
2 | U66C U80G | 0.49
3 | G70A U78C | 0.8
4 | G70A U78G | 0.46
5 | G70A U78A | 0.43
6 | C68U U74C | 1.19
7 | U66G U69A | 0.47
8 | U66G U69C | 0.31
9 | U69G C79U | 0.72
10 | U67C U78G | 0.12
11 | U67C U78C | 0.35
12 | U67C U78A | 0.29
13 | U69A G70A | 0.24
14 | C68U A75U | 1.02
15 | C68U A75G | 0.67
16 | G70A U76A | 0.8
17 | G70A U76C | 0.75
18 | G70A A77U | 1.07
19 | G70A A77G | 0.53
20 | G70A U74A | 0.73
21 | G70A U74C | 0.69

Row | Variant | self-cleavage
22 | U67A C79A | 0.82
23 | C68A A75U | 0.28
24 | U69A U78A | 0.92
25 | U69A U78C | 0.75
26 | U69A U78G | 0.39
27 | C68A U74C | 0.86
28 | C68A U74G | 0.68
29 | C68A U74A | 0.52
30 | U67G U80C | 0.34
31 | U67G U80A | 0.4
32 | C68A G70U | 0.36
33 | U69A U80A | 0.74
34 | U69A U80C | 0.56
35 | U69A U80G | 0.76
36 | G70C U78A | 0.17
37 | U69A C81U | 0.84
38 | U69A C81A | 0.98
39 | U69G U80C | 0.82
40 | U69G U80A | 0.88
41 | U69G U80G | 0.61
42 | C71G A77U | 0.13

Row | Variant | self-cleavage
43 | U69A G73U | 0.93
44 | U69A G73C | 0.65
45 | U69A G73A | 1.16
46 | U72A C81A | 1.26
47 | U72A C81G | 1.24
48 | U72A C81U | 1.11
49 | C71G U78C | 0.36
50 | G70C U72C | 0.31
51 | U69A U72C | 0.5
52 | U69A U72A | 0.33
53 | U69A U72G | 0.49
54 | U66C C79U | 0.39
55 | U66C C79A | 0.38
56 | U72A A77U | 0.89
57 | U72A A77G | 1.02
58 | U66C A75G | 0.28
59 | U66C A75U | 0.4
60 | U66C A75C | 0.54
61 | U66G | 0.48
62 | U66C | 0.44
63 | U72C A77U | 1.21

Row | Variant | self-cleavage
64 | U72C A77G | 1.18
65 | U72C A77C | 1.07
66 | U67G U72A | 0.36
67 | U67G U72C | 0.14
68 | U66C G70U | 0.22
69 | U66C G70A | 0.35
70 | U69A A77U | 0.75
71 | U69A A77G | 0.72
72 | U69C C79G | 0.72
73 | U69C C79U | 0.74
74 | U69G U72A | 0.35
75 | U69G U72C | 0.44
76 | C68A U69C | 0.17
77 | C68A U69A | 0.25
78 | C68A U69G | 0.42
79 | C71U U76C | 0.84
80 | U67C A75U | 0.26
81 | U67C A75G | 0.35
82 | U67G G70C | 0.21
83 | U69C G70C | 0.22
84 | U69C G70U | 0.25
